Results reported in the supplement of paper PMC9170038.

Test system: MS2 coat protein
Assay: apparent KD of MS2 coat protein; designed switch direction (-1 OFF switch, 1 ON switch): -1; higher = weaker reporter binding
In short: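 Designed RNA switches sharing common flanks were transcribed on Illumina chips by stalled E. coli RNA polymerase. They were titrated with SNAP-549-labelled MS2 coat protein, from 0.7 or 1.5 nM doubling to 3 µM, in Tris-HCl pH 7.5 buffer with KCl, MgCl2, BSA, DTT, tRNA and Tween-20. Titrations ran without input, with 200 uM small-molecule ligand, or with an oligonucleotide input. The apparent KD of each design is the median over its clusters, after curve-fitting of normalised cluster fluorescence.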

[1] = input ligand: microRNA oligo, concentration not stated
[2] = Eterna round: R95, input ligand: FMN 200 uM
[3] = Eterna round: R95, input ligand: microRNA oligo, concentration not stated
[4] = Eterna round: R95, input ligand: none

Row | Sequence | apparent KD of MS2 coat protein (input ligand: FMN 200 uM) [nM] | apparent KD of MS2 coat protein (input ligand: none) [nM] | apparent KD of MS2 coat protein [3] [nM] | other results
1 | GAGCCAUCGUGAGAUGGCUAAUUUACAUGAGGAUCACCCAUGUAGGAUAUCGAUUGCUUUGCAGUCGAGAAGGACAUGUUUAAU [JL ENG3 3.98] (Eterna round: R96, puzzle: Exclusion NG 3) | 71.6 | 36.2 |  | apparent KD of MS2 coat protein [1]: 28.3 nM
2 | GAGGGACAUGAGGAUCACCCAUGUGAGGAUAUGUAAGAGAGAAGAGAGAGGAUAAGAAACAGAAGGCGCGGGAG [JR_Exclu1_Sub090] (puzzle: Exclusion 1) |  |  | 44 | apparent KD of MS2 coat protein [2]: 33.9 nM; apparent KD of MS2 coat protein [4]: 77.1 nM
3 | GAGUACUUAGGAUAUACAUGAGGAUCACCCAUGUCUAGGCGGCGCUGGGUCCCUCGCAGUAGAAGGAAGCGCUG [Ceeranat] (puzzle: Exclusion 3) |  |  | 20.6 | 
4 | GAGUGACAUGAGGAUCACCCAUGUGAGGAUAUCCGAUGGACCAAAUUAACAAUAGAAGGGAGAAGGCGCAUAAA [Exclusion 1 V8] (puzzle: Exclusion 1) |  |  | 152 | apparent KD of MS2 coat protein [2]: 133 nM; apparent KD of MS2 coat protein [4]: 158 nM
5 | GAGUGACAUGAGGAUCACCCAUGUGAGGAUAUCGGACGGACCUAGUUAACAUCCGCCGCGAGAAGGCACAUCGG [Exclusion 1 V23] (puzzle: Exclusion 1) |  |  | 136 | 
6 | GAGUUACAUGAGGAUCACCCAUGUGAGGAUAUGAGUCAGUCACGGUGACGUGGCUGACUCAGAAGGCACAAAGG [Mat - Exclusion 1 - JL Mod - D37] (Eterna round: R97, puzzle: Exclusion 1) | 186 | 83.8 |  | 
7 | GAUAGAGAGCAGGAUAUCUUAGAAAUGUAUUAUAGAGAAGGGCUCACAUGAGGAUCACCCAUGUGGUCCUAGAU [JL Dibiri mod 15] (Eterna round: R96, puzzle: Exclusion 6) | 94.3 | 19.6 |  | apparent KD of MS2 coat protein [1]: 14.4 nM
8 | GAUAGAGAGCAGGAUAUCUUAGAAAUGUAUUAUAGAGAAGGGCUCACAUGAGGAUCACCCAUGUGGUCCUAGAU [JL Dibiri mod 15] (puzzle: Exclusion 6) |  |  | 16 | 
9 | GAUAUGUAAGGAUAUCGUGCAAGUUUCAAAAGAGGCUUGUGCGAGAAGGUACAUGAGGAUCACCCAUGUAGGUU [Omei Ex4 B14] (Eterna round: R97, puzzle: Exclusion 4) | 116 | 29.6 |  | 
10 | GAUCAACAUGAGGAUCACCCAUGUGAGGAUAUAGACCUAAGGCGCAAGCUAUGGGACUCUAGAAGGCGCGGAAU [Eternabot (L2) Solution 93] (Eterna round: R97, puzzle: Exclusion 1) | 40 | 36.6 |  | 
11 | GAUCACUGAGGAUAUACACAGAUACAAAGUAUCUGAUUGUGACAUGAGGAUCACCCAUGUAGAAGGCAGAGGUC [Omei Ex2 B6] (Eterna round: R97, puzzle: Exclusion 2) | 179 | 31.1 |  | 
12 | GAUCAUGCAGGAUAUACAGUAUCCAUGAAAACAUGGAUCUCACAUGAGGAUCACCCAUGUAGAAGGGCAUGAUC [Omei Ex2 A25] (Eterna round: R97, puzzle: Exclusion 2) | 40.1 | 41.4 |  | 
13 | GAUCAUGCAGGAUAUACAUAAACCAUGAAAACAUGGCUCAAACAUGAGGAUCACCCAUGUAGAAGGGCAUGAUC [Omei Ex2 A19] (Eterna round: R97, puzzle: Exclusion 2) | 69.1 | 31.5 |  | 
14 | GAUCAUGCAGGAUAUACAUGGAACAUUAAAUCAUGAAUUUCACAUGAGGAUCACCCAUGUAGAAGGGCAUGAUC [Omei Ex2 A16] (Eterna round: R97, puzzle: Exclusion 2) | 32.5 | 31.6 |  | 
15 | GAUCAUGCAGGAUAUACAUUAACCAUGAAAACAUGGAUCAAACAUGAGGAUCACCCAUGUAGAAGGGCAUGAUC [Omei Ex2 A21] (Eterna round: R97, puzzle: Exclusion 2) | 46.6 | 25.9 |  | 
16 | GAUCCCAUUGUUAGGAUAUAUAGCCUAACGCGAGUGUAGAAGGGACAUGAGGAUCACCCAUGUGUGCAUUAGGG [Eternabot (L2) Solution 96] (Eterna round: R97, puzzle: Brourd's mod of Exclusion 4) | 37.2 | 43.8 |  | 
